Consider one molecule from patent US20220332804A1 (CSL INNOVATION, published 2022).

One may read the Kd as the free concentration of one partner at which half of the binding sites on the other are occupied at equilibrium, for simple one-to-one binding.

Positions count from the first letter of the chain named.

What all share (test): SPR, antibody captured, C2 as analyte;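 note: biacore SPR at 37 °C, anti-C2 mAbs captured via goat anti-human IgG on CM5 chips, double-referenced sensorgrams fit to a 1:1 kinetic or steady-state model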
A general note: SPR reads the build-up and loss of mass on a sensor chip optically.

The target in one test is T1, human C2 V465A (human, UniProt P06681 21-752).
T1 sequence: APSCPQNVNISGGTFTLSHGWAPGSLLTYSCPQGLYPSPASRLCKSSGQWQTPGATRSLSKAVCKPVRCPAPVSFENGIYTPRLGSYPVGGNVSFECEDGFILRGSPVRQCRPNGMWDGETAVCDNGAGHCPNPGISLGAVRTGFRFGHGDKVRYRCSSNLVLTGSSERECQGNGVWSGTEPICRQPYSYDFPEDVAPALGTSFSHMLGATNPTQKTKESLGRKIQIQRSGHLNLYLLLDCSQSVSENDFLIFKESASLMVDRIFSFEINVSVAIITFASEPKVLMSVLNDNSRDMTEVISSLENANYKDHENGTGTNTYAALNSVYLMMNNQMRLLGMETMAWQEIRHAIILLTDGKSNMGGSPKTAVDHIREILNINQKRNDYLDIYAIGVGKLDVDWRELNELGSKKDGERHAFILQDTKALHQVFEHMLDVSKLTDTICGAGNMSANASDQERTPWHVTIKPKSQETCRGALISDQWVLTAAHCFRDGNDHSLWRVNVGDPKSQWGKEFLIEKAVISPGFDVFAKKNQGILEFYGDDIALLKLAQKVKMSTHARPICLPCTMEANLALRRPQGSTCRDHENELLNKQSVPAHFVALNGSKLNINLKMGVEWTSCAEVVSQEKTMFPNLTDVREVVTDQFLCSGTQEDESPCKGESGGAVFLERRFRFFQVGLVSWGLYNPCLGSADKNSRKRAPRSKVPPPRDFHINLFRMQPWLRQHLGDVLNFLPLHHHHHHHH

For another test, the target named is T2, human C2 E275A (human, UniProt P06681 21-752).
T2 sequence: T1 sequence with E255A, A445V

For another test, the target named is T3, human C2 A436S (human, UniProt P06681 21-752).
T3 sequence: T1 sequence with A416S, A445V

The target of the next test is T4, human C2 H451A (human, UniProt P06681 21-752).
T4 sequence: T1 sequence with H431A, A445V

B1: RF16-226 (antibody, human IgG4 S228P, lambda)
heavy: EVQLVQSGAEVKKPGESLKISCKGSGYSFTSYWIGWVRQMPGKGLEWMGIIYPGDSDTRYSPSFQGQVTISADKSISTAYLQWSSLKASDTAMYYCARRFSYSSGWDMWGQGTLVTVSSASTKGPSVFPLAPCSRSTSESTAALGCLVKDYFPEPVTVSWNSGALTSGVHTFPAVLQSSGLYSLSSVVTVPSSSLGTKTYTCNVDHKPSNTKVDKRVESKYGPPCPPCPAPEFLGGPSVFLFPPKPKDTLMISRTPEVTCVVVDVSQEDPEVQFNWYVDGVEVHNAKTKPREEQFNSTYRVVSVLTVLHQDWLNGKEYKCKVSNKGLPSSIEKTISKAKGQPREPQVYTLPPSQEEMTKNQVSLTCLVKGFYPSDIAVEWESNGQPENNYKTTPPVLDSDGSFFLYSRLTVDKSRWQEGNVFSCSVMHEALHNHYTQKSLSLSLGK
light: SYELTQPPSVSVSPGQTARITCSGDALTSKYVAWYQQKSGLAPLLVIYEDTRRPSGIPAKFSGSSSGSVATLTISGAHGDDEADYYCYSTDASGHQRVFGGGTKLTVLSQPKAAPSVTLFPPSSEELQANKATLVCLISDFYPGAVTVAWKADGSPVKAGVETTKPSKQSNNKYAASSYLSLTPEQWKSHRSYSCQVTHEGSTVEKTVAPTECS
notes: pH-dependent anti-C2 antibody from a phage display library; also called WT
Turning to B1, the equilibrium dissociation constant (Kd) with human C2 V465A came out at 17.1 nM; with human C2 E275A it was 9.4 nM; with human C2 A436S it was 6.2 nM; with human C2 H451A, 105 nM.
